Laboratory results published in article PMC3897428 (PLoS ONE, 2014).

Tests used:
Conditions in all cases: one partner purified
[1] = target: T1, chimpanzee uPAR in tissues (chimpanzee (endogenous in tissues), UniProt Q9GK80); test: immunostaining of cells or tissue; immunohistochemistry of chimpanzee tissues with ATN-658; no figure or methods given
T1 construct: source: endogenous, chimpanzee tissues

[2] = target: T2, African green monkey uPAR on COS-1 cells (Chlorocebus aethiops (COS-1 cells), UniProt Q9GK79); test: flow cytometry on cells; cells incubated with ATN-658 (10 µg/mL) 1 h at 4°C in FACS buffer, Alexa Fluor 488 secondary antibody
T2 construct: also called AGM uPAR; source: endogenous, on COS-1 cells

[3] = target: T3, human uPAR on the surface of cells (PC-3, HeLa) (Homo sapiens, UniProt Q03405); test: radioligand binding; iodinated ATN-658 on the surface of HeLa cells
T3 construct: source: endogenous, on PC-3 and HeLa cells

[4] = target: T4, mouse uPAR on B16 melanoma cells (Mus musculus (B16 melanoma), UniProt P35456); test: whole cell saturation binding assay; adherent cells on gelatin coated 12-well plates, varying concentrations of biotin-labeled ATN-658 in HBSS/0.1% BSA, 1 h at room temperature, HRP-streptavidin and OPD
T4 construct: source: endogenous, on B16 cells

[5] = target: T2, African green monkey uPAR on COS-1 cells; test: as above
[6] = target: T5, African green monkey (AGM) suPAR (Chlorocebus aethiops (COS-1 cells), UniProt Q9GK79); test: ELISA; capture ELISA: suPAR clones from culture supernatant captured by anti-V5 antibody on the plate, biotin-ATN-658, streptavidin-HRP, OPD; saturation binding
T5 construct: soluble uPAR (suPAR) of African green monkey (Cercopithecus aethiops), cloned from COS-1 cells by PCR; numbers count on: the mature protein; Parent of the nine point mutants; also called monkey suPAR; source: Drosophila S2 cells, expressed as described for human suPAR
T5 sequence (Q9GK79 whole entry, looked up): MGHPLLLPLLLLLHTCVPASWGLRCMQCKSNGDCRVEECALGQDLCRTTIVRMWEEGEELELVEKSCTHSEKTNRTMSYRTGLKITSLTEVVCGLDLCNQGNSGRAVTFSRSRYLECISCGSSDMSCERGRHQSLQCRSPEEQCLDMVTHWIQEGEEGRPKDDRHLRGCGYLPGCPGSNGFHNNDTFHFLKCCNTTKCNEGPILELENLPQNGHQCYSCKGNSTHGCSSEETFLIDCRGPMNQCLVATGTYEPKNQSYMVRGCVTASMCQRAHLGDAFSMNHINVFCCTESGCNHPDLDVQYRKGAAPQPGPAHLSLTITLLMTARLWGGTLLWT

T2 sequence (Q9GK79 whole entry, looked up): as above
T1 sequence (Q9GK80 23-305): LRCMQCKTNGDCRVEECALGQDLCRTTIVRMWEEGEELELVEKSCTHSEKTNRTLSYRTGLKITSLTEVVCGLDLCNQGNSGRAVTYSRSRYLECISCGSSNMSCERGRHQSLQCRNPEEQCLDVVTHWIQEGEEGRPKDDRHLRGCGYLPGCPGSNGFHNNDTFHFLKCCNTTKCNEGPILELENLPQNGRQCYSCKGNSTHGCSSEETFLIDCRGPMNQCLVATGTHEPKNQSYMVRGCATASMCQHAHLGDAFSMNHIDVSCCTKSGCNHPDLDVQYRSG
T4 sequence (P35456 24-298): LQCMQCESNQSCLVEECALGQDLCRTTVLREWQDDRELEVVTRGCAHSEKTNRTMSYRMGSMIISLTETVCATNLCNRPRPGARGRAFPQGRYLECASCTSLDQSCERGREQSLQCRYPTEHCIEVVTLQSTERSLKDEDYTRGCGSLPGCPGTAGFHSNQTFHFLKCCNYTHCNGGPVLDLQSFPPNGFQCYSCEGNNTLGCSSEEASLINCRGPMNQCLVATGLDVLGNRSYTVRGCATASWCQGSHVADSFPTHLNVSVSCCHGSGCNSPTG
T3 sequence (Q03405 23-305): as the sequence (Q9GK80 23-305) above, with M31L, N102D, N117S counted along it

B1: ATN-658 monoclonal antibody (antibody, V domains shown)
VH: EVQLQQSGPELVKTGASVKISCKASGYSFTSYYMHWVKQSHGKSLEWIGEINPYNGGASYNQKIKGRATFTVDTSSRTAYMQFNSLTSEDSAVYYCARSIYGHSVLDYWGQGTSVSVSS
VL: not shown
notes: Fab part as the heavy chain of m4, followed by the rest of a mouse IgG1 heavy chain; as the light chain of m4 (kappa); Mouse IgG1 kappa; source: mouse hybridoma tissue culture supernatant, purified (protein-A Sepharose)
[1]
  binding result: binds
[2]
  binding result: no binding (tested: 10 µg/mL)

B2: iodinated ATN-658 (antibody, V domains shown)
VH: B1 VH
VL: not shown
notes: as the heavy chain of m1; as the light chain of m1; Mouse IgG1 kappa; source: mouse hybridoma tissue culture supernatant, purified (protein-A Sepharose), iodinated
[3]
  Kd: ~5 nM

B3: Biotin-ATN-658 (antibody, V domains shown)
VH: B1 VH
VL: not shown
notes: as the heavy chain of m1; as the light chain of m1; Mouse IgG1 kappa
[4]
  binding result: no binding
[5]
  binding result: no binding
[6]
  binding result: no binding (tested: 1 µg/mL biotin-ATN-658 (methods))
